Reference: US11453711B2, “Fusion proteins of GLP-1 and GDF15 and conjugates thereof” (BEIJING QL BIOPHARMACEUTICAL CO., LTD., priority 2019, dated 2022)

How the values were obtained:
[1] = Body weight and food intake in C57BL/6 mice, unconjugated fusion proteins, 30 nmol/kg daily 10 days; assay type: in vivo; settings: for Body weight reduction at 30 nmol/kg (% reduction compared to vehicle)(Day11) / Cumulative food intake reduction at 30 nmol/kg (% reduction compared to vehicle)(Day11): C57 mice, 30 nmol/kg daily, Day11, unconjugated fusion proteins
Procedure: (§1) 10 week old male C57BL/6 mice were injected everyday subcutaneously with 15 nmol/kg of the fusion protein conjugates (i.e., MLC002, MLC 004, MLC 005, MLC 006, MLC 007, MLC 008, and MLC 009) for 14 days. Food intake and body weight were measured daily and five animals were used for each treatment group. Body weight (BW) was monitored for each individual animal, but food intake for each group animals was measured together. Day 1 and Day 14 are first day and last day of molecule dosage. % BW loss=100*(BW on Day n-BW on Day 1)/(BW on Day 1). Cumulative food intake on Day n represents sum of food intake from Day 1 to Day n. Data are indicated as mean values and standard error (SEM) or pooled values. Statistical analysis was performed by One-way ANOVA. Body weight reduction on Day 11 is calculated by −1*(% BW loss−% BW loss of vehicle group); Cumulative food intake reduction is calculated by −100*(cumulative food intake-cumulative food intake of vehicle)/cumulative food intake of vehicle.
As described in the above method, a daily dose of 30 nmol/kg of the unconjugated fusion proteins (i.e., MLC100, MLC023, MLC022, MLC020, MLC003, MLC124, MLC021, MLC019, MLC102) were administered to C57BL/6 for 10 days. Data were calculated as above method. Day 1 and Day 10 are first day and last day of administration.

[2] = Body weight and food intake in C57BL/6 mice, fusion protein conjugates, 30 nmol/kg daily 10 days; assay type: in vivo
Procedure: as §1
Data were calculated in the same way as described above. Day 1 and Day 10 are first day and last day of the administration.
MLC014 was used as a negative control. MLC014 has an amino acid sequence of SEQ ID NO: 261, which contains a linker fused to the N terminal of GDF15, with a CRM conjugated to the lysine residue in the linker. Tirzepatide was also used as a control.

[3] = Pharmacokinetic measurement in mouse, single sc dose 30 nmol/kg, plasma ELISA; settings: for Cmax: read-out: Cmax (nmol/L), single sc dose 30 nmol/kg; for AUC0-24 h / Terminal t1/2 / Tmax: single sc dose 30 nmol/kg

Row | Molecule | Body weight reduction at 30 nmol/kg (% reduction compared to vehicle)(Day11) [1] | Cumulative food intake reduction at 30 nmol/kg (% reduction compared to vehicle)(Day11) [1] | in vivo efficacy (food intake and body weight reduction) ([1]; unconjugated fusion proteins, 30 nmol/kg daily 10 days, by linker length) | Body weight reduction at 30 nmol/kg (% reduction compared to vehicle)(Day11) [2] | Cumulative food intake reduction at 30 nmol/kg (% reduction compared to vehicle)(Day11) [2] | Cmax [3] | AUC0-24 h [3] | Terminal t1/2 [3] | Tmax [3]
1 | MLC022: unconjugated GLP-1/GDF15 fusion protein (protein) HGEGTFTSDVSSYLEEQAAKEFIAWLVRGGGGQEPGQEPGQEPGQEPGQEPGQEPARQGDHCPLGPGRCCRLHTVRASLEDLGWADWVLSPREVQVTMCIGACPSQFRAANLHAQIKTSLHRLKPDTVPAPCCVPASYNPMVLIQKTDTGVSLQTYDDLLAKDCHCI | 10.4% | 30.0% |  |  |  |  |  |  | 
2 | MLC124: unconjugated GLP-1/GDF15 fusion protein, linker of at least 60 residues (protein) HGEGTFTSDVSSYLEEQAAKEFIAWLVRGGGGQEPGAQPGQEPGAQPGQEPGAQPGQEPGAQPGQEPGAQPGQEPGAQPGAQPGAQPGAQPARQGDHCPLGPGRCCRLHTVRASLEDLGWADWVLSPREVQVTMCIGACPSQFRAANLHAQIKTSLHRLRPDTVPAPCCVPASYNPMVLIQRTDTGVSLQTYDDLLARDCHCI | 23.0% | 38.0% | the most significant results among all the tested fusion proteins |  |  |  |  |  | 
3 | MLC017: fusion polypeptide SEQ ID NO: 264 conjugated with Moiety A at 55K of Linker (conjugate, Moiety A conjugated at linker K55) HGEGTFTSDVSSYLEEQAAREFIAWLVRGGGGQEPGAQPGQEPGAQPGQEPGAQPGQEPGAQPGQEPGAQPGQEPGAQPGAQPGAKPGAQPGAQPGAQPGAQPGAQPGAQPARQGDHCPLGPGRCCRLHTVRASLEDLGWADWVLSPREVQVTMCIGACPSQFRAANLHAQIKTSLHRLRPDTVPAPCCVPASYNPMVLIQRTDTGVSLQTYDDLLARDCHCI |  |  |  | 25.4% | 52.3% | 29.4 nmol/L | 0.4385 µM·h | 11.1 h | 7.3 h
4 | MLC074: fusion polypeptide SEQ ID NO: 369 conjugated with Moiety B at 41C of Linker (conjugate, Moiety B conjugated at linker C41) HGEGTFTSDVSSYLEEQAAKEFIAWLVRGGGGQEPGAQPGQEPGAQPGQEPGAQPGQEPGAQPGQEPGAQPCQEPGAQPGAQPGAQPGAQPGAQPGAQPGAQPGAQPGAQPARQGDHCPLGPGRCCRLHTVRASLEDLGWADWVLSPREVQVTMCIGACPSQFRAANLHAQIKTSLHRLKPDTVPAPCCVPASYNPMVLIQKTDTGVSLQTYDDLLAKDCHCI |  |  |  | 20.0% | 39.9% | 102 nmol/L | 1.8247 µM·h | 18.0 h | 10.7 h
5 | MLC075: fusion polypeptide SEQ ID NO: 369 conjugated with Moiety C at 41C of Linker (conjugate, Moiety C conjugated at linker C41) HGEGTFTSDVSSYLEEQAAKEFIAWLVRGGGGQEPGAQPGQEPGAQPGQEPGAQPGQEPGAQPGQEPGAQPCQEPGAQPGAQPGAQPGAQPGAQPGAQPGAQPGAQPGAQPARQGDHCPLGPGRCCRLHTVRASLEDLGWADWVLSPREVQVTMCIGACPSQFRAANLHAQIKTSLHRLKPDTVPAPCCVPASYNPMVLIQKTDTGVSLQTYDDLLAKDCHCI |  |  |  | 20.7% | 46.2% | 69.8 nmol/L | 1.2753 µM·h | 20.4 h | 13.3 h
6 | MLC086: fusion polypeptide SEQ ID NO: 377 conjugated with Moiety C at 37C of Linker (conjugate, Moiety C conjugated at linker Cys37) HGEGTFTSDVSSYLEEQAAKEFIAWLVRGGGGQEPGAQPGQEPGAQPGQEPGAQPGQEPGAQPGQEPCQAPGQEPGAQPGAQPGAQPGAQPGAQPGAQPGAQPGAQPGAQPARQGDHCPLGPGRCCRLHTVRASLEDLGWADWVLSPREVQVTMCIGACPSQFRAANLHAQIKTSLHRLKPDTVPAPCCVPASYNPMVLIQKTDTGVSLQTYDDLLAKDCHCI |  |  |  | 24.4% | 34.8% |  |  |  | 
7 | MLC085: fusion polypeptide SEQ ID NO: 377 conjugated with Moiety B at 37C of Linker (conjugate, Moiety B conjugated at linker Cys37) HGEGTFTSDVSSYLEEQAAKEFIAWLVRGGGGQEPGAQPGQEPGAQPGQEPGAQPGQEPGAQPGQEPCQAPGQEPGAQPGAQPGAQPGAQPGAQPGAQPGAQPGAQPGAQPARQGDHCPLGPGRCCRLHTVRASLEDLGWADWVLSPREVQVTMCIGACPSQFRAANLHAQIKTSLHRLKPDTVPAPCCVPASYNPMVLIQKTDTGVSLQTYDDLLAKDCHCI |  |  |  | 23.8% | 40.1% |  |  |  | 
8 | MLC091: fusion polypeptide SEQ ID NO: 380 conjugated with Moiety B at 35C of Linker (conjugate, Moiety B conjugated at linker Cys35) HGEGTFTSDVSSYLEEQAAKEFIAWLVRGGGGAQPGAQPGAQPGAQPGAQPGAQPGAQPGAQPGQCPGAQPGQEPGAQPGQEPGAQPGQEPGAQPGQEPGAQPGQEPGAQPARQGDHCPLGPGRCCRLHTVRASLEDLGWADWVLSPREVQVTMCIGACPSQFRAANLHAQIKTSLHRLKPDTVPAPCCVPASYNPMVLIQKTDTGVSLQTYDDLLAKDCHCI |  |  |  | 22.7% | 38.1% |  |  |  | 
9 | MLC087: fusion polypeptide SEQ ID NO: 378 conjugated with Moiety B at 41C of Linker (conjugate, Moiety B conjugated at linker Cys41) HGEGTFTSDVSSYLEEQAAKEFIAWLVRGGGGAQPGAQPGAQPGAQPGAQPGAQPGAQPGAQPGQEPGAQPCQEPGAQPGQEPGAQPGQEPGAQPGQEPGAQPGQEPGAQPARQGDHCPLGPGRCCRLHTVRASLEDLGWADWVLSPREVQVTMCIGACPSQFRAANLHAQIKTSLHRLKPDTVPAPCCVPASYNPMVLIQKTDTGVSLQTYDDLLAKDCHCI |  |  |  | 22.7% | 31.8% |  |  |  | 
10 | MLC092: fusion polypeptide SEQ ID NO: 380 conjugated with Moiety C at 35C of Linker (conjugate, Moiety C conjugated at linker Cys35) HGEGTFTSDVSSYLEEQAAKEFIAWLVRGGGGAQPGAQPGAQPGAQPGAQPGAQPGAQPGAQPGQCPGAQPGQEPGAQPGQEPGAQPGQEPGAQPGQEPGAQPGQEPGAQPARQGDHCPLGPGRCCRLHTVRASLEDLGWADWVLSPREVQVTMCIGACPSQFRAANLHAQIKTSLHRLKPDTVPAPCCVPASYNPMVLIQKTDTGVSLQTYDDLLAKDCHCI |  |  |  | 22.2% | 33.9% |  |  |  | 
11 | MLC088: fusion polypeptide SEQ ID NO: 378 conjugated with Moiety C at 41C of Linker (conjugate, Moiety C conjugated at linker Cys41) HGEGTFTSDVSSYLEEQAAKEFIAWLVRGGGGAQPGAQPGAQPGAQPGAQPGAQPGAQPGAQPGQEPGAQPCQEPGAQPGQEPGAQPGQEPGAQPGQEPGAQPGQEPGAQPARQGDHCPLGPGRCCRLHTVRASLEDLGWADWVLSPREVQVTMCIGACPSQFRAANLHAQIKTSLHRLKPDTVPAPCCVPASYNPMVLIQKTDTGVSLQTYDDLLAKDCHCI |  |  |  | 22.4% | 34.8% |  |  |  | 
